From the Human Domainome abundance scans (Beltran et al. 2025)
± gives the uncertainty stated by the source.

B1: Ventral anterior homeobox 1, residues 102 to 157; numbered along this chain, Q5SQQ9 (parent)
chain: RTRTSFTAEQLYRLEMEFQRCQYVVGRERTELARQLNLSETQVKVWFQNRRTKQKK

Variants of: B1
Experiment: abundance fitness (aPCA) (normalised: wild type 0, dead -1); higher = more abundant; growth selection in yeast, the domain comes from the species named
Conditions: Homo sapiens

| Variant | abundance fitness |
| --- | --- |
| K55F | -0.229 ± 0.21 |
| K55A | 0.086 ± 0.1 |
| K55C | -0.091 ± 0.2 |
| K55N | 0.081 ± 0.18 |
| K55L | 0.128 ± 0.11 |
| K55Q | 0.29 ± 0.21 |
| K55H | -0.149 ± 0.26 |
| K55M | -0.288 ± 0.18 |
| K55D | 0.305 ± 0.17 |
| K55G | 0.043 ± 0.093 |
| K55I | -0.238 ± 0.2 |
| K55R | -0.187 ± 0.1 |
| K55S | -0.072 ± 0.12 |
| K55P | 0.061 ± 0.13 |
| K55V | 0.119 ± 0.1 |
| K55W | -0.105 ± 0.12 |
| K55E | 0.238 ± 0.15 |
| N49R | -0.26 ± 0.11 |
| N49V | -0.1 ± 0.12 |
| N49H | -0.358 ± 0.27 |
| N49T | 0.072 ± 0.18 |
| N49E | 0.297 ± 0.15 |
| N49K | -0.022 ± 0.18 |
| N49S | -0.277 ± 0.14 |

| Variant | abundance fitness |
| --- | --- |
| N49M | -0.442 ± 0.2 |
| N49P | -0.929 ± 0.31 |
| N49D | -0.019 ± 0.32 |
| N49I | -0.069 ± 0.27 |
| N49F | -0.609 ± 0.48 |
| N49L | -0.046 ± 0.12 |
| N49Q | -0.038 ± 0.21 |
| N49G | -0.047 ± 0.1 |
| N49C | -0.283 ± 0.25 |
| R50K | -0.041 ± 0.17 |
| R50A | -0.163 ± 0.13 |
| R50E | 0.009 ± 0.19 |
| R50S | -0.451 ± 0.12 |
| R50V | -0.943 ± 0.18 |
| R50I | -1.09 ± 0.44 |
| R50H | -0.624 ± 0.43 |
| R50N | -0.424 ± 0.35 |
| R50W | -0.929 ± 0.2 |
| R50Y | -0.285 ± 0.27 |
| R50M | -0.034 ± 0.16 |
| R50P | -1.02 ± 0.29 |
| R50Q | -0.098 ± 0.17 |
| R50L | -0.925 ± 0.2 |
| R50G | -0.832 ± 0.13 |

| Variant | abundance fitness |
| --- | --- |
| R50T | -0.392 ± 0.16 |
| F47S | -0.762 ± 0.21 |
| F47W | -0.651 ± 0.25 |
| F47E | -1.04 ± 0.3 |
| F47P | -0.836 ± 0.25 |
| F47V | -0.787 ± 0.17 |
| F47G | -0.976 ± 0.14 |
| F47T | -0.792 ± 0.24 |
| F47R | -0.873 ± 0.18 |
| F47K | -0.885 ± 0.39 |
| F47C | -0.743 ± 0.29 |
| F47Y | -0.376 ± 0.34 |
| F47I | -0.663 ± 0.29 |
| F47M | -0.228 ± 0.17 |
| F47A | -1.02 ± 0.17 |
| F47D | -0.674 ± 0.23 |
| F47Q | -0.767 ± 0.25 |
| F47H | -0.754 ± 0.35 |
| K53S | 0.161 ± 0.17 |
| K53C | 0.202 ± 0.18 |
| K53R | -0.088 ± 0.09 |
| K53H | -0.226 ± 0.32 |
| K53L | 0.183 ± 0.13 |
| K53Y | 0.292 ± 0.43 |

| Variant | abundance fitness |
| --- | --- |
| K53M | -0.103 ± 0.19 |
| K53G | -0.037 ± 0.096 |
| K53V | 0.137 ± 0.12 |
| K53D | 0.209 ± 0.19 |
| K53E | 0.186 ± 0.16 |
| K53T | 0.197 ± 0.16 |
| K53W | -0.04 ± 0.14 |
| K53I | -0.02 ± 0.28 |
| K53A | 0.044 ± 0.12 |
| K53N | 0.199 ± 0.33 |
| K53F | 0.174 ± 0.26 |
| K53Q | 0.115 ± 0.19 |
| Q54V | -0.017 ± 0.088 |
| Q54W | -0.187 ± 0.11 |
| Q54Y | -0.317 ± 0.39 |
| Q54K | 0.144 ± 0.27 |
| Q54R | -0.237 ± 0.084 |
| Q54F | -0.284 ± 0.18 |
| Q54I | -0.191 ± 0.32 |
| Q54S | -0.125 ± 0.1 |
| Q54P | 0.013 ± 0.12 |
| Q54A | 0.018 ± 0.09 |
| Q54T | -0.332 ± 0.22 |
| Q54G | 0.005 ± 0.076 |

| Variant | abundance fitness |
| --- | --- |
| Q54E | 0.11 ± 0.12 |
| Q54H | -0.149 ± 0.18 |
| Q54N | -0.202 ± 0.3 |
| Q54C | -0.252 ± 0.2 |
| Q54L | -0.045 ± 0.088 |
| R51H | -0.038 ± 0.18 |
| R51M | -0.333 ± 0.25 |
| R51V | -0.319 ± 0.12 |
| R51E | -0.309 ± 0.19 |
| R51A | -0.325 ± 0.12 |
| R51W | -0.243 ± 0.14 |
| R51N | -0.117 ± 0.35 |
| R51C | -0.08 ± 0.17 |
| R51Q | 0.049 ± 0.24 |
| R51S | -0.201 ± 0.13 |
| R51I | 0.068 ± 0.26 |
| R51D | -0.14 ± 0.22 |
| R51K | -0.365 ± 0.32 |
| R51F | -0.2 ± 0.25 |
| R51Y | -0.091 ± 0.21 |
| R51G | -0.16 ± 0.1 |
| T52M | 0.194 ± 0.18 |
| T52L | -0.141 ± 0.1 |
| T52K | 0.091 ± 0.16 |

| Variant | abundance fitness |
| --- | --- |
| T52G | 0.137 ± 0.09 |
| T52H | -0.279 ± 0.23 |
| T52Q | -0.145 ± 0.15 |
| T52N | -0.037 ± 0.25 |
| T52Y | -0.137 ± 0.3 |
| T52D | 0.154 ± 0.19 |
| T52V | -0.014 ± 0.1 |
| T52P | -0.558 ± 0.19 |
| T52E | 0.139 ± 0.16 |
| T52I | -0.358 ± 0.17 |
| T52C | -0.165 ± 0.17 |
| T52W | -0.316 ± 0.14 |
| T52A | -0.11 ± 0.12 |
| T52F | -0.285 ± 0.17 |
| T52R | -0.249 ± 0.098 |
| K56L | -0.205 ± 0.24 |
| K56W | 0.078 ± 0.38 |
| K56H | -0.159 ± 0.27 |
| K56C | 0.148 ± 0.37 |
| K56V | 0.005 ± 0.22 |
| K56R | -0.127 ± 0.22 |
| K56G | 0.324 ± 0.18 |
| K56A | -0.291 ± 0.3 |
| K56N | 0.151 ± 0.34 |

| Variant | abundance fitness |
| --- | --- |
| K56P | 0.143 ± 0.36 |
| K56S | 0.135 ± 0.14 |
| K56E | 0.12 ± 0.33 |
| K56M | -0.17 ± 0.27 |
| K56I | 0.003 ± 0.39 |
| K56Y | -0.039 ± 0.19 |
| K56Q | -0.167 ± 0.33 |
| Q48D | -0.11 ± 0.44 |
| Q48W | -0.619 ± 0.27 |
| Q48H | -0.505 ± 0.39 |
| Q48I | -0.284 ± 0.46 |
| Q48C | -0.051 ± 0.29 |
| Q48G | -0.314 ± 0.15 |
| Q48M | -0.122 ± 0.3 |
| Q48L | -0.051 ± 0.2 |
| Q48E | -0.193 ± 0.31 |
| Q48K | 0.142 ± 0.45 |
| Q48R | -0.172 ± 0.15 |
| Q48A | -0.167 ± 0.2 |
| Q48T | -0.076 ± 0.26 |
| Q48V | -0.115 ± 0.18 |
| Q48Y | -0.298 ± 0.28 |
| Q48S | -0.111 ± 0.16 |
